The nature of the data set: yeast display, Sf9 membrane polyspecificity reagent, FACS + sequencing; frameworks hold sequencing errors. A digest of the protocol: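 Polyreactivity labels are assigned by the sorting gate from which each nanobody was recovered. The gates were low and high (top ~1%), set on anti-HA fluorescence for expression and streptavidin fluorescence for reagent binding. Before sorting, galactose-induced (36–48 hours) yeast display cells were stained for 1 hour at 4 °C with 10% biotinylated, detergent-solubilized Sf9 membrane reagent.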
With “QVQLVESGGGLVQAGGSLRLSCAASGFIFRRYTMGWSRQAHGKERELVAAITSSGGTNYADSVKGRFTISRDNAKNTVYLQMNSLKPEDTAVYFCAAESVSSVWYDYLGQGTQVTVSS”, the “polyreactivity (PSR sort gate)” value is on record as “high polyreactivity”. For “QVQLVESGGGLVQAGGSLRLSCAASGFIFRRYTMGWYRQAPGKERELVATITRSVNTDYADSVKGRFTFSRDNAKNTVYLQMNSLKPEDTAVYYCAARKYYYFPVAYDYWGQGTQVTVSS” the value was “high polyreactivity”; for “QVQLVESGGGLVQAGGSLRLSCAASGFIFRTYAMAWYRQAPGKERELVAAIRQSAGRTYYADSVKGRFTISRDNAKNTVYLQMISLKPEDTAVYYCAADRSPYRRQYDYWGQGTQVTVSS”, “high polyreactivity”. On to “QVQLVESGGGLVQAGGSLRLSCAASGFIFRTYAMGWYRQAPGKERELVAAISGTTGSTYYADSVKGRFTISRDNAKNTVYLQMNSLKPEDTAVYFCAADYYWYIRYEYWGQGSQVTVSS”, for which the “polyreactivity (PSR sort gate)” value is given as “low polyreactivity”.

For the sequence “QVQLVESGGGLVQAGGSLRLSCAASGFIFRVYGMGCYRQATAKERELVAAMTGGCGSTYYADSVKGRFTISRDNAKNTVYLQMNSLKPEDTAVYYCAAVRYSGVRYRYGIYSDTMDYWGQGTQVTVSS”, the “polyreactivity (PSR sort gate)” value is recorded as “high polyreactivity”.

For the sequence “QVQLVESGGGLVQAGGSLRLSCAASGFIFRWYAMGWSRQAPGKERELVAAISRSGDSTYYADSVKGRFTISRDNAKNTVYLQMNSLKPEDSAVYYCAADDRYYTYGYDYWGQGTQVTVSS”, the “polyreactivity (PSR sort gate)” value is “low polyreactivity”. Consider “QVQLVESGGGLVQAGGSLRLSCAASGFIFRYNAMGLYRQAPGKERELVARINSGVSTNYADSVKGRFTISRDNAKNTVYLQMNSLKPEDTAVYYCNARVRRGYSRFDYWGQGTQVTVSS”, for which the “polyreactivity (PSR sort gate)” value is “high polyreactivity”. With “QVQLVESGGGLVQAGGSLRLSCAASGFIFRYNAMGWYRQAPGKERELVARISSGGSTNYADSVKGRFTISRDNAKNTVYLQMNSLKPEDTAVYYCAVKQYWYIWSGYGYDYWGQGTQVTVSS”, the “polyreactivity (PSR sort gate)” value is listed as “high polyreactivity”. For “QVQLVESGGGLVQAGGSLRLSCAASGFIFRYYAMAWYRQAPGKERELVASISRRGGSTYYADSVKGRFTISRDNSKNTFYLQMIRLIPEDTAVYYCAADVVNTVYYPGYDYLGQGTQVTVSS” the value was “high polyreactivity”; for “QVQLVESGGGLVQAGGSLRLSCAASGFIFRYYAMGSYRQAPGKERELVAAITSGGASTYYADSVKGRFTISRDNAMNTVYLQMNSLKPDDTAVYYCAADTSSYSEYEYWGQGTQVTVSS”, “low polyreactivity”. Regarding “QVQLVESGGGLVQAGGSLRLSCAASGFIFRYYAMGWYRQAPGKERELVAAIDYSGGSTNYADSVKGRFTISRDYAKNTVYLQMNSQKPEDTAVYYCNAEYTWHRGYDYWGQGTQVTVSS”, the “polyreactivity (PSR sort gate)” value is reported as “low polyreactivity”.

For “QVQLVESGGGLVQAGGSLRLSCAASGFIFRYYAMGWYRQAPGKERELVAAIRRGGSTSYADSVKGRFTISRDNAKNTVYLQMNSLKPEDTAVYYCNALGNFGMDYWGQGTQVTVSS”, the “polyreactivity (PSR sort gate)” value is given as “high polyreactivity”. For “QVQLVESGGGLVQAGGSLRLSCAASGFIFRYYAMGWYRQAPGKERELVAAISGNGGNTYYADSVKGRFTISRDNAKNTVYLQMNSLKPEDTAVYYCNRAPGYRGGRYDYWGQGTQVTVSS” the value was “high polyreactivity”; for “QVQLVESGGGLVQAGGSLRLSCAASGFIFRYYAMGWYRQAPGKERELVAAISSRGGSTYYADSVKGRFTISRDNAKNTVYLQMNSLKPEDTAVYYCAKRGFYTDRDYWGQGTQVTVSS”, “high polyreactivity”; for “QVQLVESGGGLVQAGGSLRLSCAASGFIFRYYAMGWYRQAPGKERELVAAISWSGSRTYYADSVKGRFTISRDNAKNTVYVQMNSLKPEDTAVYYCAADGNVGVTKGRFDYWGQGTQVTVSS”, “high polyreactivity”.

“QVQLVESGGGLVQAGGSLRLSCAASGFIFRYYAMGWYRQAPGKERELVAAITRGGSTYYADSVKGRFTISRDNAKNTVYLQMNSLKPEDTAVYDCAARLYTQYYYWGQGTQVTVSS”: the “polyreactivity (PSR sort gate)” value is “high polyreactivity”.

Take “QVQLVESGGGLVQAGGSLRLSCAASGFIFRYYGMGWYRQAPGKERELVAAITDGGSTTYADSVKGRFTISRDNAKNTVYLQMNSLKPEDTAVYYCNAEAGGFDYYGKTYRYGDYWGQGTQVTVSS”: the “polyreactivity (PSR sort gate)” value is reported as “low polyreactivity”. For “QVQLVESGGGLVQAGGSLRLSCAASGFIFRYYSMAWYRQAPGKERELVAAISGSGGGTYYADSVKGRFTISRDYAKNTVYLQMNSLKPEDTAVYYCNARKVYSRRYKYDYWGQGSQVTVSS” the value was “high polyreactivity”. For “QVQLVESGGGLVQAGGSLRLSCAASGFIFRYYTMGWYRQAPGKERELVARISSGGSTTYADSVKGRFTISRDNAKNTVYLQMNSLKPEDTAVYYCHARVKRWYFGNANHSPEYDYWGKGTQVTVSS” the value was “low polyreactivity”; for “QVQLVESGGGLVQAGGSLRLSCAASGFIFSANAMGWYRQAPGKERELVAAISSRGTSTYYADSVKGRFTISRDYAKNTVYLQMNSLKPEDTGVYFCAADYYQAGTYVWMDYWGQGTQVTVSS”, “high polyreactivity”; for “QVQLVESGGGLVQAGGSLRLSCAASGFIFSGYAMGWYRQAPGKERELVAAIRWNGGRTYYADSVKGRFTISRDNAKNTVYLQMNSLKPEDTAVYYCAAGSGRDYGYRYFFWRYDYWGQGTQVTVSS”, “high polyreactivity”. For “QVQLVESGGGLVQAGGSLRLSCAASGFIFSGYTMGWYRQAPGKERELVAAITKRGGRTYYADSVKGRFTISRDNAKNTVYLQMNSLKPEDTAVYYCNVDVKVYSDETTDGDYWGQGTQVTVSS” the value was “high polyreactivity”. For the sequence “QVQLVESGGGLVQAGGSLRLSCAASGFIFSIYAMGWYRQAPGKERELVAAISGTGSTSYADSVKGRFTISRDNAKNTVYLQMNSLKPEDTAVYYCAKDGPGRLGDDYWGQGTQVTVSS”, the “polyreactivity (PSR sort gate)” value is on record as “low polyreactivity”.

As to “QVQLVESGGGLVQAGGSLRLSCAASGFIFSIYAMGWYRQAPGKERELVATITYSGGSTYYADSVKGRFTISRDNAKNTVYLQMNSLKPEDTAVYYCNALSKGYYTIGGYSWGQGTQVTVSS”, the “polyreactivity (PSR sort gate)” value was “low polyreactivity”.

As for “QVQLVESGGGLVQAGGSLRLSCAASGFIFSLYAMGWYRQAPGKERELVAAISRSDDRTYYADSVKGRFTISRDDAKNTVYLQMNSLKPEDTAVYYCNVRYSYILIYEYWGQGTQVTVSS”, the “polyreactivity (PSR sort gate)” value is given as “low polyreactivity”.

For the sequence “QVQLVESGGGLVQAGGSLRLSCAASGFIFSLYAMGWYRQAPGKERELVAVITWSDGRTYYADSVKGRFTISRDNAKNTVYLQMNSLKPEDTAVYYCAAADWITEYDYWGQGTQVTVSS”, the “polyreactivity (PSR sort gate)” value is given as “low polyreactivity”.

“QVQLVESGGGLVQAGGSLRLSCAASGFIFSPNALGWYRPAPGKEREFVAAIRYSGTSTSYADSVKGRFTISRDNAKNTVYLQMNSLKPEDTAVYYCNAQWRFSRGYTYNYWGQGTQVTVSS”: the “polyreactivity (PSR sort gate)” value is “high polyreactivity”.

As to “QVQLVESGGGLVQAGGSLRLSCAASGFIFSPNAMGWYRQAPGKEREFVAAIRYSGTSTSYADSVKGRFTISRDNAKNTVYLQMNSLKPEDTAVDYCAAQSRQRTGMYYWGQGTQVTVSS”, the “polyreactivity (PSR sort gate)” value was “high polyreactivity”. With “QVQLVESGGGLVQAGGSLRLSCAASGFIFSRNALGWYRQAPGKERELVAVISTRGGSTYYADSVKGRFTISRDNAKNTVYLQMNSLKPEDTAVYYCAARRTRGYEYWGQGTQVTVSS”, the “polyreactivity (PSR sort gate)” value is listed as “high polyreactivity”. Take “QVQLVESGGGLVQAGGSLRLSCAASGFIFSRNAMGWYRQAPGKERELVAAISAGGGSTYYADSVKGRFTISLDNAKYTVYLQMNSLKPEDSAVYSCAAYFRSQFGYWGQGTEVTVSS”: the “polyreactivity (PSR sort gate)” value is on record as “high polyreactivity”.

On to “QVQLVESGGGLVQAGGSLRLSCAASGFIFSRYAMGCYRQSPGKERELVATIRRSGRTNYADSVKGRFTISRDNAKNTFYLQMNSLKPEDTAVYYCAKPGQWHRYHYGSWGQGTQVTVSS”, for which the “polyreactivity (PSR sort gate)” value is “low polyreactivity”. For “QVQLVESGGGLVQAGGSLRLSCAASGFIFSRYAMGWYRQAPGKERELVAAISWSGASTYYADSVKGRFTISRDNAKNTVYLQMNSLKPEDTAVYYCNAGYYRGEGFYTYDYWGQGTQVTVSS” the value was “high polyreactivity”. For “QVQLVESGGGLVQAGGSLRLSCAASGFIFSRYGMGWYRQAPGKERELVAAISRSGGSTYYADSVKGRFTISRDNAKNTVYLQMNSLKPEDTAVYYCATAYSWRNADRFAYSYDYWGQGTQVTVSS” the value was “low polyreactivity”. With “QVQLVESGGGLVQAGGSLRLSCAASGFIFSSYAMGWYRPAPGKERELVAAISKSGDRTSYADSVKGRFTISRDNAKNTVYLQMNSLKPEDTAVYYCNAKYWGYSHHVIWYDYWGQGTQVTVSS”, the “polyreactivity (PSR sort gate)” value was “high polyreactivity”. For “QVQLVESGGGLVQAGGSLRLSCAASGFIFSSYAMGWYRQAPGKERELVAAITSGGSTNYADSVKGRFTISRDNAKNTVYLQMNSLKPEDTAVYYCAADGVASLFGDPPTEFDYWGQGTQVTVSS” the value was “low polyreactivity”; for “QVQLVESGGGLVQAGGSLRLSCAASGFIFSSYAMGWYRQAPGKERELVAAITSGGSTYYADSVKGRFTISRDNAKNTVYLQMNSLKPEDTAVYYCAADHWDGQYWFDYWGQGTQVTVSS”, “low polyreactivity”; for “QVQLVESGGGLVQAGGSLRLSCAASGFIFSSYAMGWYSQAPGKERDLGAAISKSGDRTSYADSVKGRFTISRDNAKNTVYLQMNSLKPEDTAVYYCAKDRLYRTKKYRDMYYWGQGTQVTVSS”, “high polyreactivity”.

In the case of “QVQLVESGGGLVQAGGSLRLSCAASGFIFSTNAMGWYRQAPGKERELVAAISASGGITYYADSVKGRFTISRDNAKNTVYLQMNSLKPEDTAVYYCAVYYYSPGNNIYGYWGQGTQVTVSS”, the “polyreactivity (PSR sort gate)” value was “high polyreactivity”.

As to “QVQLVESGGGLVQAGGSLRLSCAASGFIFSTNAMGWYRQAPGKERELVAVINGGGSTYYADSVKGRFTISRDNAKNTVYLQLNSLKPEDTAVYNCARKSWPKEGRVDPGYDYWGQGTQVTVSS”, the “polyreactivity (PSR sort gate)” value was “low polyreactivity”.

Take “QVQLVESGGGLVQAGGSLRLSCAASGFIFSTYAMGWYRQAPGKERELVAAITRTGTRTYYADSVKGRFTISRDNAKNTVYLQMNSLKPEDTAVYYCAARAGGEAYGSRYGYWGQGTQVTVSS”: the “polyreactivity (PSR sort gate)” value is given as “high polyreactivity”. For “QVQLVESGGGLVQAGGSLRLSCAASGFIFSTYAMGWYRQAPGKERELVASTSRRAGRTYYADSVKGRFTISRDNAKNTVYLQMNSLKPEDTAVYYCAAEARVGYHFQILDYWGQGTQVTVSS” the value was “high polyreactivity”.
